Experiment: yeast display, Sf9 membrane polyspecificity reagent, FACS + sequencing; frameworks hold sequencing errors
How it was run: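 After 36–48 hours of galactose induction, yeast (Saccharomyces cerevisiae BJ5465) displaying a synthetic nanobody library were stained at 4 °C for 1 hour with 10% biotinylated, detergent-solubilized Sf9 membrane reagent. Streptavidin microbeads enriched the stained cells before FACS sorting into low and high (top ~1%) gates on anti-HA and streptavidin fluorescence. Each clone's polyreactivity label reflects its gate of origin.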

Sequence	polyreactivity (PSR sort gate)
QFQLVESGGGLVQAGGSLRLSCAASGSTFGVNAMGWYRQAPGKERELVAAISSSGSSTYADSVKGRFTISRDNAKNTVYLQMNSLKPEDTAVYYCNKTTLLTVEYDYWGQGTQVTVSS	low polyreactivity
QFQLVESGGGLVQAGGSLRLSCAASGSTFGVYAMGWYRQAPGKERELVATINSGGSTNYADSVKGLFTISRDNAKNTVYLQMNSLKPEDTAVYYCAAGPFWQDFYVYEYDYWGQGTQVTVSS	low polyreactivity
QFQLVESGGGLVQAGGSLRLSCAASGSTFRRNTMGWYRQAPGKEREFVAAISRRGGSTYYADSVKGRFTISRDNAKNTVYLQMNRLKPEDTAVYYCAAPGLSRLYNVYYWPYDYWGQGTQVTVSS	high polyreactivity
QFQLVESGGGLVQAGGSLRLSCAASGSTFSANAMGWYRQAPGKERELVASISRRGGSTYYADSVKGRFTISRDIAKNTVYLQMNSLKPEDTAVYYCNKRFARQGSPSEYGRSQIGYYYWGQGTQVTVSS	high polyreactivity
QFQLVESGGGLVQAGGSLRLSCAASGSTFTANAMGWYRQSPGKERELVAAITNSDGSTYYADSVKGRFTISRDNAKNTVYLQMNSLKPEDTAVYYCAKDYYACYWEMDYWGQGTQVTVSS	low polyreactivity
QFQLVESGGGLVQAGGSLRLSCAASGSTFVYYAMGWYRQAPGKERELVAAITASGGGTYYADSVKGRFTISRDNAKNTVYLQMNSLKPEDTAVYYCAAYLGWGYDYWGQGTQVTVSS	low polyreactivity
QFQLVESGGGLVQAGGSLRLSCAASGSTIIKNAMGWYRQAPGKERELVAAINWSVTRTYYADSVKGRFTISRDNAKNTVYLQMNSLKPEDTAVYYCAKVIARFVRYDYWGQGTQVTVSS	high polyreactivity
QFQLVESGGGLVQAGGSLRLSCAASGSTYSYYAMGWYRQAPGKERELVAAISSRGGSTYYADSVKGRFTISRDNAMNTVYLQMNSLKPEDTAVYYCNADHQFRSSVSGDHDYWGQGTQVTVSS	high polyreactivity
QFQLVESGGGLVQAGGSLRLSCAASGVSNALGWYRQAPGKERELVAAISRSGGSTYYADSVKGRFTISRANAKNTVNLQMNSLKPEDTAVYYCAVGYTYVYRYSSHKYDYWGEGTQVTVSS	high polyreactivity
QFQLVESGGGLVQAGGSLRLSCAASRFYTMGWSRQAPGKERELVAAISWSGGDTYYADSVKGRFTISRDNAKNTVYLQMTSLKPEDTAVYYCAKKTIGSYVHEPYYYWGHGTQVTVSS	low polyreactivity
QFQLVESGGGLVQAGGSLRLSCADSGSIFSGYAMGRYRQEPGKDSELVASITRGGSTYYADSVKGRFTISLDNAKNNVYLQINSLKQEDTAVYYCARYGYKNRPLGMDYWGQGTQVTVSS	low polyreactivity
QFQLVESGGGLVQAGGSLRLSCASSGSIIGIYAMGWYRQAPGKERELVAAISWSGGSTYYADSVKGRFTISRDNAKNTVYLQMNSLKPEDTAVYYCAARGHYQYYWGQGTQVTVSS	high polyreactivity
QFQLVESGGGLVQAGGSLRLSSAASGSIFYTNAMGWYRQAPGKEREFVAGITRRGTSTNYADSVKGRFTISRDNAKNSVYLQMNSLKPEVTAVYYCNARYYLYWGQGTQVTVSS	low polyreactivity
QFQLVESGGGLVQARGRLRLSCAASGSIFSYNAMGWYRQAPGKERELVARISSSGSTNYADSVKGRFTISRDNAKNTVYIQMNSLKPEDTAVYYCNKDPYWPSWTRRRREYYYWGQGTQVTVSS	high polyreactivity
QFQLVESGGGLVQARGSLRLSCAASGSIFDLNAMGWYRPAPGKERELVAAISSGGGTYYADSVKGRFTISRDNAKNTVYFQMYSLKPDDSAVYYCAAGKSSPRRIFEYWGQGTEVTVSS	high polyreactivity
QFQLVESGGGLVQARGSLRLSCAASGSTFRYYGMGWYRQTPGKERELVAAISSSGGSTYYADSVKGRFTISRDNAKITVYLKMNSLKPEDNAVYYCAAGSRFVSSRLYYWGQGTQVTVSS	high polyreactivity

Sequence	polyreactivity (PSR sort gate)
QFQLVESGGGLYQAGGSLRLSCASSGITLYFYAMGWYRQAPGKVRELVAAISRGGRTYYADSVKGRFTISRDNAKNTVYLQMNSLKPEDTAVYYCAARYTSEYSAFDYWGQGTQVTVSS	low polyreactivity
QFQLVESGGVLDQAGCSLRLSCAASGYTFYANAMGWYRQAPGKEREFVASIPWSGGSTYYADSVKGRFTISRDNAKNTVYLQMNSLKPEDTAVYYCAAESWFKYDYWGQGTQVTVSS	low polyreactivity
QFQLVESGVGLVQAGGSLRFSCAASGRIFMPNAMGWYRQSPGKEREFVASISWSGGSTYYADSVKGRFTISRDNAKTTDYLQMNSLKPEDTAVYYCNARYGKRYYYWGQGTQVTVSS	low polyreactivity
QFQLVESVRGLVQAGVSLRLSCAASGSTFNFYAMGLYRQPPGKERELVAAIRQSSGRTYYADSVKGRFTISRDNGNYTVYLQMNSLKPEDTAVYYCAAVRYNFNFKMYYWGQGTQVTVSS	high polyreactivity
QFQLVESWGGLVQAGGSLRLSCAASGTMGWYRQAPVKERELVAAISQSGGSTYYADSVKGRFTISRDNAKNTVYLQMNSLKPEDTAVYYCAVDPLYGDPRRDYWGQGTQVTVSS	low polyreactivity
QFQLVETGGGLDQAGGSLRLSCAASGTTFGVYAMGWYRQAPGKERELVAVITSRGGSTYYADSVKGRFTISRDNAKNTVYLQMNSLIPEDTAVYYCNVDSAYRRPPYDYWGQGTQVTVSS	high polyreactivity
QGQHVESGGGLVQAGGSLRLSCAASGTFVYAMGWYRQAPGKERELVAAISYSGGSTYYADSVKGRFTISRDNAKNTVYLQMNSLKPEDTAVFYCNVLGWYYTTTKYDYWGQGTQVTVSS	high polyreactivity
QGQIVESGGGLGQAGGSLRLSCAASGSIFWANAMGWYSQSPWKERELVAAISSSGGRTYYADSVKGRFTISRDNAKNTVYLQMNSLKPEDTAVHYCNKLRLPYYEQGDYWGQGTQVTVSS	high polyreactivity
QGQLEDSGGGLVQAGGSLRLSCAASGFSFRSYGMGRYRQAPGKERELVAVISRSGGNTYYAASVKGRFTISRHNAKNTVYLQMHSLKPEDTAVYYCAATLVGTVIRRFDDWGQGTQVTVSS	high polyreactivity
QGQLEESGGGLVQAGGSLRLSCAAAGITFVDYSMGWYRQAPGKEMELVAGINWSGDGTSYADSVKGRFTISRDNAKNTVYLLMNSLKPEDTAVYDCAAYWYYYLMDYWGQGTQVTVSS	low polyreactivity
QGQLGESGGGLVQAGGSLRLTCAASGNIFFVYAMGWYRQAPGNEWELVAAITWGGGSTNYADSVKGRFTISRDNAKKTVYLQMNSLKPEDTAVYYCATDNRYVVDSYYWGQGTQVTVSS	high polyreactivity
QGQLLESGGGLVQAGGSLRLSCAASRFNFRFYAIGWYRQAPGKERELVASITQGGSTYYADSVKGSFTISRDNAKNTVYLQMNSLKPVDTAVYSCAARYLGGRRSGDYSRYYWGQGTQVSVSS	high polyreactivity
QGQLVDSGGGLVQAGGSLRLSCAASGSTFKNNAMGWYRQAPGKEREFVASISKRGGSTYYADSVKGRFTISRDNAKNTVYLQMNSMKPEDTAVYYCAKTYWSYGLSHGDYGEFDYWGQGTQVTVSS	high polyreactivity
QGQLVESAGGLVQAGGSLRLSCAASGSILWHYAMGWYRQAHGKERELVAAISGSGSTIYADSVKGRFTISRDNAKNTVYLQLITLKPEDTADYYCARVHGTSESKYYYWGQGTQVTVSL	low polyreactivity
QGQLVESGAGLVKAGGSLRISCAASGYTFPSNARAWYRHAPGTPRQLVAAISSGGRTNYADSLKGRFTISRDNAKNTVYLQMNRLKPEDTAVYNCNADGGPGYPSAYDYWVQGTQVTVSS	low polyreactivity
QGQLVESGGCLVQAGGSLRLSCAASGRTFYRNAMCLYRQSPGKERELVAVISSSGVRTYYADSVKGRFTISRDNAKNTVYLQMNSLKPEDTAVYYCAADSNSYYRGFDYWGQGTQVTVSS	high polyreactivity

From the nanobody polyreactivity screen of Harvey et al. (2022)
